In the RNAGym collection of RNA variant scans (doi:10.1073/pnas.2313332121):
This sample holds only a part of the variants without activity.

B1: TPR 5TU (parent)
chain: GGAUCUUCUCGAUCUAACAAAAAAGACAAAUCUGCCACAAAGCUUGAGAGCAUCUUCGGAUGCAGAGGCGGCAGCCUUCGGUGGCGCGAUAGCGCCAACGUUCUCAACUAUGACACGCAAAACGCGUGCUCCGUUGAAUGGAGUUUAUCAUG

Variants of: B1
Assay: polymerase ribozyme fitness, log enrichment relative to wild type (log ratio); higher = more active; in vitro selection for triplet polymerase activity
In short: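 After PCR construction and transcription, each subunit's mutant library from a heterodimeric triplet polymerase ribozyme was annealed with a biotinylated primer, the partner subunit and triplets. Incubation was frozen, at −7 °C, and extended constructs were gel-excised, bound to streptavidin beads and amplified by RT-PCR, in one selection round done in triplicate. Fitness is the logarithm of a genotype's enrichment divided by that of the wild type, from inverse-variance-weighted replicate averages of Illumina-sequenced inputs and outputs. The base of the logarithm is 2, and genotypes needed ≥10 input reads and ≥1 read per output.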

Point of comparison: G81A G86C A89U C125U C131U A137G, “polymerase ribozyme fitness (log ratio)” value -4.06. Against it:
- U77G C79G G83C — lower, ≤ -4.2
- C76A U90C U146G — lower, ≤ -4.2
- C72U C85U C95U — higher, -0.261
- G80A G84A — higher, -0.264
- C79G C85A A138G U148A — lower, ≤ -4.2
- G80A A91C A120G — lower, ≤ -4.2
- A73U G84C C116A — higher, -2.63
- A73U G83U A122C U127A — lower, ≤ -4.2
- G71A — higher, -2.47
- G71C — higher, -2.66
- G71U — higher, -1.93
- U78A G133A U139G — lower, ≤ -4.2
- A73C G141A — higher, -3.8
- A73U C96U G112A — lower, ≤ -4.2
- C79U C85G A138G — lower, ≤ -4.2
- G70C G94C — higher, -3.44
- C72U C76A — higher, -1.91
- C76U G83C C118U — higher, -0.363
- G71A G88A — lower, ≤ -4.2
- G74A C114U — higher, -3.85
- C76U C93G G124A C132A — lower, ≤ -4.2
- C76U U139G — higher, -0.649
- C79G U82A C87U C103A — lower, ≤ -4.2
- C76U A122U — higher, 0.0697
- G74A G141A — higher, -2.42
- G74A A115C — higher, -3.73
- A73G G94A U148C — higher, -3.66
- G80A A89U C95U A120G — higher, -1.11
- C72G C93G C95U C118G A138C U145A — lower, ≤ -4.2
- G71C G80C C95G U104G C116U — lower, ≤ -4.2
- C75U C85U A119G G143A A147C — higher, -3.76
- G70A U78C G88U U104G A113G G128U U135A — lower, ≤ -4.2
- U77A G92U C99G — the same, -4.06
- C76A G86A — higher, -2.06
- G80A C93G C96U — within 0.2 log units, -3.96
- A73G G92A C99G G141U — lower, ≤ -4.2
- A73U C95U G140A A142C — lower, ≤ -4.2
- C75G G84A A107U A121U U151C — lower, ≤ -4.2
- C72A C125U — lower, ≤ -4.2
- C76U C79A C93U C116A C118A — lower, ≤ -4.2
- C76A C85A G143U — lower, ≤ -4.2
- C76A A89U G141U — higher, -2.94
- C75U G92U — higher, -2.38
- C75U G92C — higher, -1.11
- C76A U82G — higher, -1.94
- C72U A98U — higher, 0.351
- G70C A97G — within 0.2 log units, -3.97
- C76U U77G G81U G92A C123A — lower, ≤ -4.2
- G74C G81C — within 0.2 log units, -3.94
- C75A U144G — lower, ≤ -4.2
- C79A G84A A120U U127C U144C — lower, ≤ -4.2
- G81A C87U — higher, -1.73
- C76A G88C — lower, ≤ -4.2
- G71A C96G — higher, -3.31
- C76U C85U A138C U144A — lower, ≤ -4.2
- G80A A142U U144C — higher, -3.55
- C75U C99U — higher, -2.07
- C76U C87U — higher, -0.242
- C76U C93U A97U — higher, -0.802
- C75U G92C U109A U146G — within 0.2 log units, -3.93
- G81A C105G A121U — higher, -1.1
- A73G — higher, 0.127
- A73C — higher, -2.13
- A73U — higher, -0.424
- A73G U134C — higher, 0.53
- A73G C85G — higher, -1.1
- U78G C79U G94C A115C G143A — lower, ≤ -4.2
- G80A C96G — higher, -1.11
- A73U C76G G94A — lower, ≤ -4.2
- G80C C93G — within 0.2 log units, -4.2
- U77C C116U — higher, -3.64
- C75U U82C C116A — higher, 0.695
- U78C G84A G136U — higher, -3.14
- G71U G80C C95U U127A — within 0.2 log units, -3.97
- A73U C75A G92A — lower, ≤ -4.2
- A73G A98G U146G — higher, -1.02
- A73U C85U — higher, -0.649
- G71A A107U G133C — lower, ≤ -4.2
- A73U C85A A147C — higher, -2.75
- A73U A97G U130G — lower, ≤ -4.2
- G70A C85U — higher, -3.46
- G70A C85G — lower, ≤ -4.2
- C75G U77G G80C A97U G124A — lower, ≤ -4.2
- U78A C79U U82A G94U C96G G126A G141U — lower, ≤ -4.2
- G80A G92U — higher, -3.2
- G80A G92C — higher, -0.857
- C76A A91C G128C G143A — lower, ≤ -4.2
- C75G C87A — within 0.2 log units, -3.89
- A73G C76U A142U — higher, -2.11
- U77C C79U C132A — lower, ≤ -4.2
- G70A C99U U134G G140C G143C — lower, ≤ -4.2
- C76U C93U C105U — higher, -0.938
- C79G U134C U146C — within 0.2 log units, -4.11
- A73G C93U G152A — higher, -2.84
- A73C U77C C93U — lower, ≤ -4.2
- A73U G83C C123G — higher, -2.93
- C75U G83C — higher, -1.13
- C76U A137G — higher, -0.882
- G81A C95U — higher, -1.88
- G80A A98C — higher, -2.19
- G70C G80A — within 0.2 log units, -3.94
- C76A A110U U139C G143U — lower, ≤ -4.2
- A73G G92A C132U G141C — lower, ≤ -4.2
- G74A G84A A107G — lower, ≤ -4.2
- C76U C99G — higher, -0.789
- G80U U82C — higher, -1.68
- C72G C99U U101G A142U — lower, ≤ -4.2
- U77A G94A G140A — lower, ≤ -4.2
- C72U G124A U146G — higher, -1.3
- C76G G94U C96G U111A — lower, ≤ -4.2
- U77G G84A G117U U135G — lower, ≤ -4.2
- G71C U111G — lower, ≤ -4.2
- C75U G84U U134C — higher, -1.39
- C76G C96A G140A — lower, ≤ -4.2
- C75U G136A — higher, 1.26
- C72G A91G C99G U144A — lower, ≤ -4.2
- C76U G83U G84U C123U — higher, -2.49
- C75G U78C C99U C132G — lower, ≤ -4.2
- C79U A91U C103G U135A — lower, ≤ -4.2
- C76A G140C — higher, -3.36
- C72A A73U C85G A138C U148C — lower, ≤ -4.2
- G81A A91G — higher, -2.82
- C72G C99G — lower, ≤ -4.2
- C76U U78C A106C — higher, -1.92
- C76U C85A — higher, -2.44
- C76U C85G — higher, -0.632
- C76U C87U C116A A122U U146G — higher, -3.7
- C75A C87A G88A — lower, ≤ -4.2
- U77A C95U — lower, ≤ -4.2
- C76G A97U — lower, ≤ -4.2
- G80C G88C G92A G136U — lower, ≤ -4.2
- G80C U90G — lower, ≤ -4.2
- A73C C93G — lower, ≤ -4.2
- U78A A91U A138C — lower, ≤ -4.2
- C76U C93U — higher, -2.28
- G74C C116G A150U — lower, ≤ -4.2
- U78G G86U — lower, ≤ -4.2
- G80A C99G — higher, -1.02
- C76A C85G — higher, -3.53
- U78A C93U — lower, ≤ -4.2
- G74A A122G — higher, -3.39
- C79A C87G A113G — lower, ≤ -4.2
- A73G C95G C96U G124U C149U G152A — lower, ≤ -4.2
- C76A C85A A121G — higher, -2.03
- C72U A89G C95A — higher, -1.39
- C76A C87U G92C — higher, -2.48
- C76A C87U G92A — higher, -2.16
- C76U C95U U135C C149A — lower, ≤ -4.2
- A73G A98G — higher, 0.461
- C75U A142C — higher, -1.32
- C76A C85U A137G — higher, -1.76
- C72U U104G A106G U144A — within 0.2 log units, -4.01
- C72G G83A G100A — lower, ≤ -4.2
- C79U A89C — higher, -3.38
- G80A C85G — higher, -1.38
- C79U G86A C96U C149G — lower, ≤ -4.2
- G80C — higher, -3.5
- G80U — higher, -0.409
- G80A — higher, -0.0737
- C76U C116G — higher, 0.541
- C75G G84U — lower, ≤ -4.2
- C75U A91G A147C — higher, -3.68
- A73U G126U — higher, -0.661
- G80U G81A A142G — higher, -1.49
- A73G A122U G126U — higher, -0.405
- C76G G83A U139A U146C U148C — lower, ≤ -4.2
